Assay results from patent US6358687, “Methods for monitoring the binding of A1/UP1 to single-stranded nucleic acid sequences, and to measure the effect of this binding on telomere extension and protection” (Telogene Inc.).

Experiments:
[1] = molecular target: T1, GST-UP1 (hnRNP A1 fragment) (UniProt P49312 P49312:1-196); test: EMSA; 0.25-1.0 uM protein; conditions: tags: GST; label: 5'-32P
Protocol: (§1) Gel-shift assays were performed using single-stranded or partially double-stranded duplex substrates. A, the concentrations of GST-UP1 (G-UP1) used for each set of DNA substrate were 0.25, 0.5, 1.0 and 0 µM. Duplex formation was accomplished by incubating an equimolar amount of unlabeled Tb with labeled b' (or unlabeled aT with labeled a'). The partial duplex substrates migrate slightly above the position of labeled Tb and aT. […] B, gel shift assays were accomplished in the presence of an excess of cold oligonucleotides as competitor. Labeled Tb or aT (0.1 µM) was used in combination with cold Tb or aT (0, 0.625, 1.25, 2.5 and 5.0 µM) and G-UP1 (0.3 µM). (Open bar) vertebrate telomeric repeats; (solid bar) nontelomeric DNA. The asterisk (*) indicates which oligonucleotide was ^32P-labeled at its 5' end. Complexes were fractionated on 5% non-denaturating polyacrylamide gels. The position of the free and complexed oligonucleotides is shown.

[2] = molecular target: T1, GST-UP1 (hnRNP A1 fragment); test: EMSA; legend titled binding to single-stranded telomeric extensions in partial duplex; conditions: tags: GST
Protocol: as §1

[3] = molecular target: T1, GST-UP1 (hnRNP A1 fragment); test: EMSA; not shown; conditions: tags: GST; label: 5'-32P
Protocol: as §1

[4] = molecular target: T2, UP1 (hnRNP A1 fragment) (UniProt P49312 P49312:1-196); test: EMSA; 1-4 uM protein, 0.5 uM TS10; conditions: tags: GST removed by thrombin; label: 5'-32P
T2 sequence (P49312 1-196, one chain of several): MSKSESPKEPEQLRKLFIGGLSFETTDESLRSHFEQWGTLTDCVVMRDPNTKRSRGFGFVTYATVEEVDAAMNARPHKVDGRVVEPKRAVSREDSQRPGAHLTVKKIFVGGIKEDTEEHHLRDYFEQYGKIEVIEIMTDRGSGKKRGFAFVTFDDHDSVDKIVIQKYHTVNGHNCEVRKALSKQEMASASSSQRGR
Protocol: (§2) GST-UP1 (G-UP1) at concentrations of 0, 0.2, 0.5, 1.0, 2.0 and 4.0 µM, or UP1 at concentrations of 0, 1.0, 2.0 and 4.0 µM, were incubated with TS10 (0.5 µM). Complexes were fractionated on 5% non-denaturating polyacrylamide gels. The position of complexes and free TS10 is shown.

[5] = molecular target: T1, GST-UP1 (hnRNP A1 fragment); test: EMSA; 0.2-4.0 uM protein, 0.5 uM TS10; 2.5 mM MgCl2, 75 mM KCl, 30 C; conditions: tags: GST; label: 5'-32P
Protocol: as §2

[6] = molecular target: T2, UP1 (hnRNP A1 fragment); test: EMSA; not shown; conditions: tags: GST removed by thrombin

T1 sequence (P49312 1-196, one chain of several): as above

Question: Does TAGGGTTAGGGTTAGGGTGGTCCTGTGATCCGG (ssDNA) [Tb] bind [1]?
Answer: binds

B1: Tb/b' partial duplex (mixed)
DNA 1: TAGGGTTAGGGTTAGGGTGGTCCTGTGATCCGG
DNA 2: CCGGATCACAGGACC
Question: Does B1 bind ([2]; label: 5'-32P on b', 5' single-stranded telomeric overhang)?
Answer: binds

Question: Does CCAGGACACTAGGCC (ssDNA) [a'] bind [3]?
Answer: no binding

B2: TS10 (ssDNA)
DNA: TTAGGGTTAGGGTTAGGGTTAGGGTTAGGGTTAGGGTTAGGGTTAGGGTTAGGGTTAGGG
Question: Does B2 bind [4]?
Answer: binds

Question: Does B2 bind [5]?
Answer: binds

Question: Does GGGGGTGGGAGCAGGGGAGG (ssDNA) [Ne4] bind [6]?
Answer: no binding

Question: Does GGCCTAGTGTCCTGGTAGGGTTAGGGTTAGGGT (ssDNA) [aT] bind [1]?
Answer: binds

B3: aT/a' partial duplex (mixed)
DNA 1: GGCCTAGTGTCCTGGTAGGGTTAGGGTTAGGGT
DNA 2: CCAGGACACTAGGCC
Question: Does B3 bind ([2]; label: 5'-32P on a', 3' single-stranded telomeric overhang)?
Answer: binds

Question: Does CCGGATCACAGGACC (ssDNA) [b'] bind [3]?
Answer: no binding

Question: Does GGTTAGGGTTAGGGTTAG (ssDNA) [Tel2] bind [6]?
Answer: binds
